Data published in patent US20200017592A1 (Regeneron, published 2020).
Positions count from the first letter of the chain named.

Tests used:
[1] = target: T1, human IL-36R extracellular domain expressed with a C-terminal mouse IgG2a Fc tag (hIL-36R-mFc) (human; mouse, UniProt Q9HB29 20-337); test: SPR Biacore 4000, mAb captured on anti-hFc, 25C
T1 construct: not shown: mouse IgG2a Fc, E98-K330
T1 sequence (looked up): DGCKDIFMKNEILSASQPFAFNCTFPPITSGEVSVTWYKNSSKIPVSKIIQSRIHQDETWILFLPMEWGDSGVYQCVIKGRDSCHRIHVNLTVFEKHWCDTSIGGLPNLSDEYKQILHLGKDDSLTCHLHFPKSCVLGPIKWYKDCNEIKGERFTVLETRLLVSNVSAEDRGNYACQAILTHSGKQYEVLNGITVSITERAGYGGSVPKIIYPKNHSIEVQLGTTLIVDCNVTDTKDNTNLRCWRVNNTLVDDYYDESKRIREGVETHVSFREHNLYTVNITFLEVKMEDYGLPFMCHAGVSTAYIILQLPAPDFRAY
Procedure: (§1) Equilibrium dissociation constants (KD values) for IL-36R binding to purified anti-IL-36R antibodies were determined using a real-time surface plasmon resonance biosensor using a Biacore 4000 instrument. The Biacore sensor surface was first derivatized by amine coupling with a monoclonal mouse anti-human Fc antibody (GE, # BR-1008-39) to capture anti-IL-36R monoclonal antibodies. All binding studies were performed in 0.01 M Hepes pH 7.4, 0.15 M NaCl, 3 mM EDTA, and 0.05% v/v Surfactant Tween-20 (HBS-ET running buffer) at 25° C. and 37° C. Different concentrations of IL-36R reagents, human IL-36R extracellular domain expressed with a C-terminal myc-myc-hexahistidine tag (hIL-36R-MMH), Macaca fascicularis IL-36R extracellular domain expressed with a C-terminal myc-myc-hexahistidine tag (mfIL-36R-MMH: mROR1 signal sequence (M1-A29). Macaca fascicularis IL36R_ecto domain (D20-A336).mycmycHis6), human IL-36R extracellular domain expressed with a C-terminal mouse IgG2a Fc tag (hIL-36R-mFc: mROR1 signal sequence (M1-A29)-human IL36R (D20-Y337)-mouse IgG2aFc (E98-K330)) or an in-line fusion protein of human IL-36R extracellular domain and IL1RAcP extracellular domain expressed with mouse IgG2a Fc tag (hIL-36R-Trap-mFc: mROR1 signal sequence (M1-A29)-human IL36R ecto domain (D20-Y337)-human IL1RacP ecto domain(S21-E359)-mouse IgG2aFc) in HBS-ET running buffer (ranging from 100 nM to 3.7 nM, 3-fold dilutions) were injected over the anti-IL-36R antibody captured surface for 4 minutes at a flow rate of 30 μL/minute and their dissociation in HBS-ET running buffer was monitored for 10 minutes. Kinetic association rate constant (kₐ) and dissociation rate constant (kd) were determined by fitting the real-time sensorgrams to a 1:1 binding model using Scrubber 2.0c curve fitting software. Binding dissociation equilibrium constants (KD) and dissociative half-lives (t_{1/2}) were calculated from the kinetic rate constants as: […]

[2] = target: T2, in-line fusion protein of human IL-36R extracellular domain and IL1RAcP extracellular domain expressed with … (human; mouse, UniProt Q9HB29 20-337; Q9NPH3 21-359, limits assumed); test: SPR Biacore 4000, mAb captured on anti-hFc, 25C
T2 construct: not shown: mouse IgG2a Fc
T2 sequence (looked up): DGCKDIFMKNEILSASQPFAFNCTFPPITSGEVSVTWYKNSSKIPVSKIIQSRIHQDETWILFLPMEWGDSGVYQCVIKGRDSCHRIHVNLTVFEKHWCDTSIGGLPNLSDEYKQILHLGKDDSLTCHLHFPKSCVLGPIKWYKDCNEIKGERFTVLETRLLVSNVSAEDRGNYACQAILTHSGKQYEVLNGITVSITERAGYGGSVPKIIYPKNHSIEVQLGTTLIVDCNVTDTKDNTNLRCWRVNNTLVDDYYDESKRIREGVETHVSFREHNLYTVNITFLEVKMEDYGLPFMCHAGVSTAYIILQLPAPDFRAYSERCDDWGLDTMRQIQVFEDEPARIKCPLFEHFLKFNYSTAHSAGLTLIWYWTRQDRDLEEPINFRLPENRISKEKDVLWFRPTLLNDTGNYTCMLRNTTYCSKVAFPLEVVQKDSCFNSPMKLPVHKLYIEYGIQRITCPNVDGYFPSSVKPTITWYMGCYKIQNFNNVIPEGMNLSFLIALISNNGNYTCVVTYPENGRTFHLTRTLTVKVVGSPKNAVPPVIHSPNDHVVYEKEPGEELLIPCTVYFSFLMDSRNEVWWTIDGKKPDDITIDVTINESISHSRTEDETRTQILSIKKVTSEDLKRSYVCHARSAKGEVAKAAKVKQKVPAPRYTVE
Procedure: as §1

[3] = target: T1, human IL-36R extracellular domain …; test: SPR Biacore 4000, mAb captured on anti-hFc, 37C
Procedure: as §1

[4] = target: T2, in-line fusion protein of human IL-36R …; test: SPR Biacore 4000, mAb captured on anti-hFc, 37C
Procedure: as §1

[5] = target: T3, human IL-36R extracellular domain expressed with a C-terminal myc-myc-hexahistidine tag (hIL-36R-MMH) (human, UniProt Q9HB29 20-337); test: SPR Biacore T200, mAb captured on anti-hFc, 25C, PBS-T pH 6.0 running buffer
T3 construct: also called Human IL-36R-MMH; REGN2105
T3 sequence (Q9HB29 other isoform, or with tags, fused parts or gaps limits assumed): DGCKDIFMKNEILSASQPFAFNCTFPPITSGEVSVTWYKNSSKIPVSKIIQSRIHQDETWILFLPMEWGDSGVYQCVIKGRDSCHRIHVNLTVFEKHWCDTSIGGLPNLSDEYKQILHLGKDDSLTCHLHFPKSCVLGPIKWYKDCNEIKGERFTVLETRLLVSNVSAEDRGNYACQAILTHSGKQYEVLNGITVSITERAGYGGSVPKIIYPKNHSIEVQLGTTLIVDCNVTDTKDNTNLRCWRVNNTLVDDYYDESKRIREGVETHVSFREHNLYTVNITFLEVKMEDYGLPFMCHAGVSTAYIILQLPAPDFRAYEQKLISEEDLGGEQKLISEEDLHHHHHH
Procedure: (§2) Additional binding experiments were performed to determine the effect of pH on the rate of dissociation of IL-36R bound to purified anti-IL-36R antibodies, which was determined using a real-time surface plasmon resonance biosensor using a Biacore T200 instrument. The Biacore sensor surface was first derivatized by amine coupling with a monoclonal mouse anti-human Fc antibody (GE, # BR-1008-39) to capture anti-IL-36R antibodies. […] Different concentrations of hIL-36R-MMH and mfIL-36R-MMH prepared in PBS-T, pH7.4 buffer (ranging from 100 nM to 11.11 nM, 3-fold dilutions) were injected over the anti-IL-36R antibody captured surface for 4 minutes at a flow rate of 50 μL/minute and their dissociation in two running buffers, PBS-T, pH7.4 and PBS-T, pH 6.0, was monitored for 10 minutes. All of these binding kinetics experiments were performed at 25° C. and 37° C. Kinetic dissociation constant (kd) were determined by fitting the real-time sensorgrams to a 1:1 binding model using Scrubber 2.0c curve fitting software. Binding dissociative half-lives (t_{1/2}) were calculated from kd as: […]

[6] = target: T3, human IL-36R extracellular domain …; test: SPR Biacore T200, mAb captured on anti-hFc, 25C, PBS-T pH 7.4 running buffer
Procedure: as §2

[7] = target: T3, human IL-36R extracellular domain …; test: SPR Biacore T200, mAb captured on anti-hFc, 37C, PBS-T pH 6.0 running buffer
Procedure: as §2

[8] = target: T3, human IL-36R extracellular domain …; test: SPR Biacore T200, mAb captured on anti-hFc, 37C, PBS-T pH 7.4 running buffer
Procedure: as §2

B1: H4H14699P2 (antibody, human IgG4 S228P, kappa, V domains shown)
VH: EVQLVESGGGLVQPGRSLRLSCAASGFTFDDYAIHWVRQAPGKGLEWVSVISWNSDIIGYADSVKGRFTVSRDNAKNSLYLQMNSLRTEDTALYYCAKGYNWNFFDYWGQGTLVTVSS
VL: EIVLTQSPATLSLSPGERATLSCRASQSVSSYLAWYQQKPGQAPRLLIYNAANRATDIPARFSGSGSGTDFTLTISSLEPEDFAVYYCQQRSNWPLTFGGGTKVEIKR
notes: Fully human anti-IL-36R antibody
B1 was tested, and the “100 nM hIL-36R-mFc Bound (RU)” value [1] was 150 RU, the Kd [1] was 0.359 nM and the koff [1] was 0.000203 s⁻¹. The kon [1] was 564000 M⁻¹ s⁻¹, the t1/2 [1] was 57 min and the “100 nM hIL-36R-Trap-mFc Bound (RU)” value [2] was 188 RU. For the same binder, the Kd [2] was 0.458 nM, the koff [2] was 0.000228 s⁻¹ and the kon [2] was 498000 M⁻¹ s⁻¹. The t1/2 [2] was 51 min, the “100 nM hIL-36R-mFc Bound (RU)” value [3] was 186 RU and the Kd [3] was 0.767 nM. It also gave a koff [3] of 0.000456 s⁻¹, a kon [3] of 594000 M⁻¹ s⁻¹ and a t1/2 [3] of 25 min. For the same binder, the “100 nM hIL-36R-Trap-mFc Bound (RU)” value [4] was 229 RU, the Kd [4] was 1.06 nM and the koff [4] was 0.000513 s⁻¹. The kon [4] was 484000 M⁻¹ s⁻¹, the t1/2 [4] was 23 min and the “100 nM Human IL-36R-MMH Bound (RU)” value [5] was 79 RU. For the same binder, the koff [5] was 0.00293 s⁻¹, the t1/2 [5] was 4 min and the “100 nM Human IL-36R-MMH Bound (RU)” value [6] was 84 RU. For the same binder, the koff [6] was 0.00193 s⁻¹, the t1/2 [6] was 6 min and the “100 nM hIL-36R-MMH Bound (RU)” value [7] was 83 RU. For the same binder, the koff [7] was 0.00581 s⁻¹, the t1/2 [7] was 2 min and the “100 nM hIL-36R-MMH Bound (RU)” value [8] was 96 RU. It also gave a koff [8] of 0.00415 s⁻¹ and a t1/2 [8] of 3 min.

B2: H4H14700P2 (antibody, human IgG4 S228P, kappa, V domains shown)
VH: B1 VH with I34M, A40T, I57V, G59A, A61S, V70I, R87G, Y100H
VL: B1 VL with A51V, S77G, Y87F
notes: as for B1
With B2 the “100 nM hIL-36R-mFc Bound (RU)” value [1] was 128 RU, the Kd [1] was 0.233 nM and the koff [1] was 0.00012 s⁻¹. For the same binder, the kon [1] was 517000 M⁻¹ s⁻¹, the t1/2 [1] was 96 min and the “100 nM hIL-36R-Trap-mFc Bound (RU)” value [2] was 157 RU. For the same binder, the Kd [2] was 0.283 nM, the koff [2] was 0.000125 s⁻¹ and the kon [2] was 442000 M⁻¹ s⁻¹. For the same binder, the t1/2 [2] was 92 min, the “100 nM hIL-36R-mFc Bound (RU)” value [3] was 174 RU and the Kd [3] was 0.39 nM. It also gave a koff [3] of 0.000209 s⁻¹, a kon [3] of 535000 M⁻¹ s⁻¹ and a t1/2 [3] of 55 min. For the same binder, the “100 nM hIL-36R-Trap-mFc Bound (RU)” value [4] was 216 RU, the Kd [4] was 0.555 nM and the koff [4] was 0.000253 s⁻¹. The kon [4] was 455000 M⁻¹ s⁻¹, the t1/2 [4] was 46 min and the “100 nM Human IL-36R-MMH Bound (RU)” value [5] was 120 RU. For the same binder, the koff [5] was 0.00172 s⁻¹, the t1/2 [5] was 7 min and the “100 nM Human IL-36R-MMH Bound (RU)” value [6] was 128 RU. For the same binder, the koff [6] was 0.000795 s⁻¹, the t1/2 [6] was 15 min and the “100 nM hIL-36R-MMH Bound (RU)” value [7] was 144 RU. The koff [7] was 0.0035 s⁻¹, the t1/2 [7] was 3 min and the “100 nM hIL-36R-MMH Bound (RU)” value [8] was 153 RU. The koff [8] was 0.00169 s⁻¹ and the t1/2 [8] was 7 min.

B3: H4H14706P2 (antibody, human IgG4 S228P, kappa, V domains shown)
VH: B1 VH with A23T, A40S, I57V, V70I, T88A
VL: B1 VL
notes: as for B1
For B3, the “100 nM hIL-36R-mFc Bound (RU)” value [1] was 163 RU, the Kd [1] was 0.23 nM and the koff [1] was 0.000132 s⁻¹. The kon [1] was 575000 M⁻¹ s⁻¹, the t1/2 [1] was 87 min and the “100 nM hIL-36R-Trap-mFc Bound (RU)” value [2] was 205 RU. The Kd [2] was 0.232 nM, the koff [2] was 0.00011 s⁻¹ and the kon [2] was 477000 M⁻¹ s⁻¹. For the same binder, the t1/2 [2] was 105 min, the “100 nM hIL-36R-mFc Bound (RU)” value [3] was 207 RU and the Kd [3] was 0.449 nM. For the same binder, the koff [3] was 0.000266 s⁻¹, the kon [3] was 593000 M⁻¹ s⁻¹ and the t1/2 [3] was 43 min. The “100 nM hIL-36R-Trap-mFc Bound (RU)” value [4] was 264 RU, the Kd [4] was 0.551 nM and the koff [4] was 0.000271 s⁻¹. The kon [4] was 491000 M⁻¹ s⁻¹, the t1/2 [4] was 43 min and the “100 nM Human IL-36R-MMH Bound (RU)” value [5] was 109 RU. The koff [5] was 0.000927 s⁻¹, the t1/2 [5] was 12 min and the “100 nM Human IL-36R-MMH Bound (RU)” value [6] was 119 RU. The koff [6] was 0.000616 s⁻¹, the t1/2 [6] was 19 min and the “100 nM hIL-36R-MMH Bound (RU)” value [7] was 132 RU. For the same binder, the koff [7] was 0.00233 s⁻¹, the t1/2 [7] was 5 min and the “100 nM hIL-36R-MMH Bound (RU)” value [8] was 140 RU. It also gave a koff [8] of 0.00131 s⁻¹ and a t1/2 [8] of 9 min.
